To fix the notation:
B1: CPEB3 Ribozyme (parent)
chain: GGGGGCCACAGCAGAAGCGUUCACGUCGCGGCCCCUGUCAGAUUCUGGUGAAUCUGCGAAUUCUGCUGU

The variants in this series derive from B1. Briefly: self-cleavage, relative activity (ratio to wild type); higher = more cleavage; co-transcriptional.
Take C22G G37U: the self-cleavage was 0.527.

On to C22G U53C, for which the self-cleavage turned out to be 0.184.

With C22G U53G, the self-cleavage was found to be 0.129.

As for C22U C29U, the self-cleavage was 0.14.

Regarding C22U C29G, the self-cleavage turned out to be 0.152.

As to C22G G65C, the self-cleavage was found to be 0.196.

Take C22G G65A: the self-cleavage came out at 0.173.

With C22G G65U, the self-cleavage is 0.212.

For C22A G25A, the self-cleavage was 0.162.

In the case of C22A G25U, the self-cleavage came out at 0.115.

In the case of C22U C35A, the self-cleavage stood at 0.178.

Turning to C22U C35U, the self-cleavage was 0.183.

As to C22A U38A, the self-cleavage amounted to 0.225.

Turning to C22A U38G, the self-cleavage is 0.131.

As to C22U C24G, the self-cleavage was 0.169.

For C22U C24U, the self-cleavage worked out at 0.105.

C22U C27G: the self-cleavage turned out to be 0.215.

C22U C27U: the self-cleavage came out at 0.164.

For C22U C27A, the self-cleavage turned out to be 0.2.

With C22A C32U, the self-cleavage worked out at 0.201.

On to C22A C32A, for which the self-cleavage turned out to be 0.224.

Turning to C22A C32G, the self-cleavage is 0.182.

Turning to A23C C33U, the self-cleavage is 0.937.

As for A23C C33G, the self-cleavage was 0.439.

Turning to C22A U26C, the self-cleavage amounted to 0.242.

In the case of C22A U26G, the self-cleavage was determined as 0.305.

Regarding C22U G28U, the self-cleavage was determined as 0.148.

Take C22U G28A: the self-cleavage stood at 0.117.

As for C22U G56A, the self-cleavage stood at 0.187.

Regarding C22U G56C, the self-cleavage stood at 0.21.

For C22U G56U, the self-cleavage was found to be 0.169.

For C22G A59C, the self-cleavage is 0.151.

Take C22G A59U: the self-cleavage came out at 0.246.

Take C22G A59G: the self-cleavage was found to be 0.204.

As for C22U A23G, the self-cleavage came to 0.307.

With C22U A23U, the self-cleavage amounted to 0.384.

C22G C24A: the self-cleavage stood at 0.129.

In the case of C22U G50A, the self-cleavage worked out at 0.355.

C22U G50U: the self-cleavage was 0.312.

In the case of C22U G50C, the self-cleavage turned out to be 0.243.

As to C22U C45A, the self-cleavage is 0.33.

Take C22U C45U: the self-cleavage was found to be 0.318.

Regarding C22U C45G, the self-cleavage was determined as 0.25.

In the case of C22G U38G, the self-cleavage was determined as 0.177.

For the variant C22G U38A, the self-cleavage amounted to 0.165.

Consider C22G U38C, for which the self-cleavage came out at 0.232.

For C22U C39G, the self-cleavage is 0.207.

For C22U C39A, the self-cleavage is 0.148.

For the variant C22A U36G, the self-cleavage came out at 0.161.

As for C22A U36A, the self-cleavage worked out at 0.137.

Consider C22G C34G, for which the self-cleavage amounted to 0.177.

On to C22G C34A, for which the self-cleavage was determined as 0.194.

As for C22A U46C, the self-cleavage came to 0.186.

On to C22A U46G, for which the self-cleavage was found to be 0.148.

With C22A U46A, the self-cleavage is 0.181.

Take C22G G30C: the self-cleavage was 0.166.

On to C22G G30A, for which the self-cleavage turned out to be 0.219.

Take C22G G30U: the self-cleavage was 0.162.

For the variant C22G G48U, the self-cleavage was found to be 0.161.

With C22G G48A, the self-cleavage came out at 0.226.

Turning to C22A C66G, the self-cleavage turned out to be 0.138.

In the case of C22A C66U, the self-cleavage is 0.177.

As to C22G A52U, the self-cleavage amounted to 0.146.

On to C22G A52C, for which the self-cleavage came out at 0.191.

For the variant C22G A52G, the self-cleavage is 0.124.

For the variant C22A G50U, the self-cleavage came to 0.253.

Turning to C22A G50C, the self-cleavage came to 0.234.

With C22A A52U, the self-cleavage amounted to 0.118.

In the case of C22A A52G, the self-cleavage turned out to be 0.214.

Take C22U G25A: the self-cleavage was determined as 0.164.

As for C22U G25U, the self-cleavage worked out at 0.153.

For C22U G25C, the self-cleavage was found to be 0.153.

With A23C C35G, the self-cleavage worked out at 0.417.

For C22G C29G, the self-cleavage turned out to be 0.225.

Consider C22G C29U, for which the self-cleavage turned out to be 0.07.

Consider C22G U26G, for which the self-cleavage is 0.163.

A23C A42G: the self-cleavage amounted to 0.901.

As for C22A U44G, the self-cleavage was 0.237.

In the case of C22U G68A, the self-cleavage came to 0.48.

Regarding C22U G68C, the self-cleavage was 0.517.

In the case of C22G C39A, the self-cleavage came out at 0.0996.

As for C22G C39U, the self-cleavage is 0.236.

As to C22G C39G, the self-cleavage was 0.0932.

In the case of C22A U62G, the self-cleavage was determined as 0.112.

Take C22U C66A: the self-cleavage came out at 0.19.

On to C22U C66G, for which the self-cleavage is 0.132.

As for C22U A42U, the self-cleavage was 0.27.

In the case of C22U A42C, the self-cleavage is 0.247.

Turning to C22A C35A, the self-cleavage came out at 0.252.

Take C22A C35G: the self-cleavage worked out at 0.153.

In the case of C22A C35U, the self-cleavage came out at 0.138.

In the case of C22G U44A, the self-cleavage was determined as 0.158.

Turning to C22G U44C, the self-cleavage came out at 0.22.

As to C22A G65U, the self-cleavage amounted to 0.209.

Turning to C22A G65A, the self-cleavage is 0.152.

C22U G30C: the self-cleavage is 0.181.

On to C22A U69A, for which the self-cleavage is 0.189.

Regarding C22A U69G, the self-cleavage came to 0.301.

On to C22A U69C, for which the self-cleavage amounted to 0.291.

For C22G A60U, the self-cleavage came to 0.0906.

With C22G A60C, the self-cleavage amounted to 0.133.

C22G: the self-cleavage was determined as 0.181.

On to C22U, for which the self-cleavage is 0.337.

For the variant C22U C34U, the self-cleavage was determined as 0.332.

On to C22U C34G, for which the self-cleavage stood at 0.202.

In the case of C22U C34A, the self-cleavage worked out at 0.22.

As for C22A G28C, the self-cleavage was determined as 0.124.

For the variant C22A G28U, the self-cleavage was 0.159.

Regarding C22A G28A, the self-cleavage was determined as 0.158.

For the variant C22G U61G, the self-cleavage was 0.257.

For the variant C22G U61C, the self-cleavage worked out at 0.167.

For A23C C29U, the self-cleavage is 0.389.

Regarding A23C C29A, the self-cleavage is 0.603.

As for C22U U61C, the self-cleavage worked out at 0.134.

For the variant C22U U61G, the self-cleavage was determined as 0.264.

With C22G U67A, the self-cleavage was 0.242.

In the case of C22G U67C, the self-cleavage came to 0.175.

With C22G U67G, the self-cleavage was 0.121.

Regarding C22A C29A, the self-cleavage worked out at 0.169.

As for C22A C29U, the self-cleavage was found to be 0.158.

In the case of C22A C29G, the self-cleavage amounted to 0.162.

Regarding C22U U64A, the self-cleavage is 0.21.

For the variant C22G U36G, the self-cleavage is 0.143.

Turning to C22G U36C, the self-cleavage was 0.236.

Regarding C22G U36A, the self-cleavage is 0.152.

In the case of C22G G58C, the self-cleavage amounted to 0.161.

Take C22G G58U: the self-cleavage stood at 0.202.

For the variant C22U U46A, the self-cleavage is 0.29.

On to C22U G58U, for which the self-cleavage worked out at 0.374.

As to C22U G58C, the self-cleavage is 0.223.

Take C22U G58A: the self-cleavage came out at 0.255.

Turning to C22A G30C, the self-cleavage is 0.168.

Turning to C22A G30U, the self-cleavage is 0.181.

For C22A G37C, the self-cleavage turned out to be 0.265.

Turning to C22A G37U, the self-cleavage is 0.937.

For the variant C22U U55A, the self-cleavage was 0.182.

On to C22U U55G, for which the self-cleavage was determined as 0.169.

C22U U55C: the self-cleavage turned out to be 0.157.

Take C22A U43A: the self-cleavage came to 0.143.

Consider C22A U43G, for which the self-cleavage was determined as 0.181.

Turning to C22G G47U, the self-cleavage was determined as 0.133.

Regarding C22G G47C, the self-cleavage was found to be 0.122.

In the case of C22G G47A, the self-cleavage came out at 0.149.

For the variant C22G G25A, the self-cleavage came to 0.177.

With C22G G25C, the self-cleavage was determined as 0.248.

Consider C22G G25U, for which the self-cleavage is 0.146.

Regarding C22A G47U, the self-cleavage worked out at 0.18.

In the case of C22A G47A, the self-cleavage turned out to be 0.217.

Regarding C22A G56A, the self-cleavage is 0.134.

For C22A G56C, the self-cleavage is 0.173.

Turning to C22U U43G, the self-cleavage turned out to be 0.222.

With C22U U43A, the self-cleavage came out at 0.217.

On to C22G U55G, for which the self-cleavage was 0.14.

Consider C22G U55A, for which the self-cleavage worked out at 0.116.

As to C22G U55C, the self-cleavage worked out at 0.198.

C22U U67A: the self-cleavage stood at 0.369.

Take C22A C63A: the self-cleavage worked out at 0.13.

Turning to C22A C63G, the self-cleavage was found to be 0.114.

C22G C57G: the self-cleavage was determined as 0.205.

For the variant C22G U69C, the self-cleavage turned out to be 0.374.

As for C22G A42U, the self-cleavage was found to be 0.194.

Turning to C22G A42G, the self-cleavage stood at 0.132.

Regarding C22G A42C, the self-cleavage was 0.23.

As to C22A U49G, the self-cleavage is 0.0812.

C22A U49A: the self-cleavage was 0.195.

With C22A U49C, the self-cleavage is 0.209.

For A23C C32G, the self-cleavage was found to be 0.329.
